Experimental data as given in patent US20140328841A1 (BRIGHAM AND WOMEN S HOSPITAL, published 2014).

T1: mouse CEACAM1 (mouse, UniProt P31809 35-521, limits assumed)
T1 sequence (looked up): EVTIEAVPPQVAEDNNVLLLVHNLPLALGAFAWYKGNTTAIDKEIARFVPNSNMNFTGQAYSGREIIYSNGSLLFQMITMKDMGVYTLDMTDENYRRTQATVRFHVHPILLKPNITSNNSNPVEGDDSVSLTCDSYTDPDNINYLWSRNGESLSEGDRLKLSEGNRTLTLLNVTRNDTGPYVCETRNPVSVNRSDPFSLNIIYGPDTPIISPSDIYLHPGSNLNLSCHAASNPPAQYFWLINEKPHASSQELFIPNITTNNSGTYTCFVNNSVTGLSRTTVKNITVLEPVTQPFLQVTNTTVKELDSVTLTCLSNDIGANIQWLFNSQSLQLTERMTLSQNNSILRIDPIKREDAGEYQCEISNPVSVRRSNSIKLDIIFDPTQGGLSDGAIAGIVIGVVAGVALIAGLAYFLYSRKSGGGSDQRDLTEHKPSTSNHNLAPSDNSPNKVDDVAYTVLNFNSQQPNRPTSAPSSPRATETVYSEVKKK


Key:
human CEACAM1 (human) [1] = molecular target: human CEACAM1 (human) (UniProt P13688); experiment: flow cytometry dot plot (x: mIgG1 CONTROL, y: FITC). Cells of the MOPC-treated mouse group, isotype control staining for the 5F4 panel above it.
Sequence of human CEACAM1 (human) (P13688 35-526): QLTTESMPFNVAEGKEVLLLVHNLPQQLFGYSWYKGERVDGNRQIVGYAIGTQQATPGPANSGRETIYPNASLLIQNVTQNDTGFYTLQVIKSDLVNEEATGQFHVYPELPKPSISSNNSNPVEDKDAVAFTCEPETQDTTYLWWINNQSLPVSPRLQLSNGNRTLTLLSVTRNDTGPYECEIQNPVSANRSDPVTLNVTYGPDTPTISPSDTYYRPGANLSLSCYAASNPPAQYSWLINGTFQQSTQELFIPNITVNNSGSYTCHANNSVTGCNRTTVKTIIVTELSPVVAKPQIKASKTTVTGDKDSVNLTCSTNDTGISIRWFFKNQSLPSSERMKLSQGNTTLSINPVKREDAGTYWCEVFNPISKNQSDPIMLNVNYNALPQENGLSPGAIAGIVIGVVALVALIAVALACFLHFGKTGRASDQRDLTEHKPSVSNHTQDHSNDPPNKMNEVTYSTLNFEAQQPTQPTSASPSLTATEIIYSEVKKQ

mouse CEACAM1 [2] = molecular target: T1, mouse CEACAM1; experiment: flow cytometry dot plot (x: mIgG1 CONTROL, y: FITC). Cells of the 5F4-treated mouse group, isotype control staining for the 5F4 panel above it.
mouse CEACAM1 [3] = molecular target: T1, mouse CEACAM1; experiment: flow cytometry, 5F4 staining of lymph node cells of the 5F4-treated mouse group (mouse cells; per the legend no human CEACAM1+ cells present)
human CEACAM1 (human) [4] = molecular target: human CEACAM1 (human) (UniProt P13688); experiment: flow cytometry dot plot (x: hCEACAM1 (5F4), y: FITC). Per the legend, axillary lymph node cells of an MOPC-treated Rag2-/- mouse 2 weeks after s.c. AsPc-1 inoculation. Gated events spread from about 10^3 to above 10^4 on the x axis. The panel is marked *.

| number printed in the same gate of the dot plot (human CEACAM1 (human) [1]) | number printed in the same gate of the dot plot (mouse CEACAM1 [2]) | binding result (mouse CEACAM1 [3]) | number printed in the hCEACAM1 (5F4)-positive gate of the dot plot (human CEACAM1 (human) [4]) | Molecule |
| --- | --- | --- | --- | --- |
| 0.667 | 1.27 |  |  | mIgG1 CONTROL (antibody) |
|  |  | no binding | 2.15 | 5F4 mouse anti-human CEACAM1 monoclonal antibody (hybridoma 5F4/2C6/2H3) (antibody, mouse IgG1, V domains shown, also called 5F4 antibody; 5F4 monoclonal antibody) VH: EVQLVESGGDLVKPGGSLKLACAASGFIFSSHGMSWVRQTPDKRLEWVATISSGGTYTYYPDSVKGRFTISRDNDKNTLYLQMNSLKSEDTAMYYCARHDFDYDAAWFAYWGQGTLVTVSA VL: QIVLTQSPALMSASPGVKVTMTCSANSSVSYMYWYRQKPRSSPKPWIYLTSNLASGVPARFSGSGSGTSYSLTISSMEAEDAATYYCQQWSSNPPTFGSGTKLEIK |
